For experiment [1], the target named is T1, Flot-1-CT-GST (Rattus norvegicus (Rat), UniProt Q9Z1E1).
T1 chain: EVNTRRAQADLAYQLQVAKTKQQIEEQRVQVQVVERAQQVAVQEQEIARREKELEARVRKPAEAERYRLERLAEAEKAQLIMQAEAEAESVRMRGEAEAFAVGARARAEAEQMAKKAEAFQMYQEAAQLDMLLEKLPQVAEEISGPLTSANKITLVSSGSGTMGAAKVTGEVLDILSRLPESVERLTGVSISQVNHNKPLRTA
Briefly: GST pulldown.

The target in experiment [2] is T2, FL Flot-1-GST (Rattus norvegicus (Rat), UniProt Q9Z1E1-1).
T2 chain: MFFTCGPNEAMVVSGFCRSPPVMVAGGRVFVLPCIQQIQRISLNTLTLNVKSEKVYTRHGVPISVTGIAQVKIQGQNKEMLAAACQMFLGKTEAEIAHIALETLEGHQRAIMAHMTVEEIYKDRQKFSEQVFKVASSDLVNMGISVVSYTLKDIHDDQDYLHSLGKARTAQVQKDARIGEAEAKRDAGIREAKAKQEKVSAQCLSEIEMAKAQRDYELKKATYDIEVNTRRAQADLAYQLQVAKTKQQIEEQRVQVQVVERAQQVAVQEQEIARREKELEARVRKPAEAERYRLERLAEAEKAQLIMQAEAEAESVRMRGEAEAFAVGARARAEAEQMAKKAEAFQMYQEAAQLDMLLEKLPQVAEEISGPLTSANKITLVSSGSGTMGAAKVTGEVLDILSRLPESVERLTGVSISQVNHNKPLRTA
Briefly: GST pulldown.

The target in experiment [3] is T3, FRS2-His (UniProt Q8WU20 1-508).
T3 construct: called one of the 'FL proteins' in the results; The vector pSCherry2 (Eurogentec) may add a Cherry carrier besides the His tag (surmise); also called His-tagged FRS2; purified FRS2-His; source: E. coli SE1, purified (Ni-NTA, dialysis)
T3 sequence (looked up): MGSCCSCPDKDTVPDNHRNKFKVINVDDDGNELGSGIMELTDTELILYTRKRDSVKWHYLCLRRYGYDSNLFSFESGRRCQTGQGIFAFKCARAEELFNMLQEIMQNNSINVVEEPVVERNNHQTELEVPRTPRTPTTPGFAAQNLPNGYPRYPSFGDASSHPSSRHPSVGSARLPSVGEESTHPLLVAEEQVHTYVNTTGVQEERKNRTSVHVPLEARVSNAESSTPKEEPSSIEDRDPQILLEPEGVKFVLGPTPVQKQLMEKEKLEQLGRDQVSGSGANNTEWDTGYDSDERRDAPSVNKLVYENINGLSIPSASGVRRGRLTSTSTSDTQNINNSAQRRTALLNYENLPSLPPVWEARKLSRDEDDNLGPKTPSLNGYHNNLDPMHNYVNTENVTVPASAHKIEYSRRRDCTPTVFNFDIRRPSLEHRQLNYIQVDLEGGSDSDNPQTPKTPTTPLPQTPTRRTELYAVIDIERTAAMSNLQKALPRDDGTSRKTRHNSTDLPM
Briefly: pull-down; GST fusion immobilised on sepharose beads, purified FRS2-His in solution; 5 µg of the purified proteins, on ice 3 h; wash 50 mM Tris-HCl pH 7.5, 150 mM NaCl, 1 mM EDTA, 1 mM DTT, 0.01% Triton X-100; anti-His blot. Particulars: both partners purified.

These results are taken from article PMC3250484, “Molecular Networks in FGF Signaling: Flotillin-1 and Cbl-Associated Protein Compete for the Binding to Fibroblast Growth Factor Receptor Substrate 2” (PLoS ONE, 2012).

B1: FRS2-His (protein)
chain: MGSCCSCPDKDTVPDNHRNKFKVINVDDDGNELGSGIMELTDTELILYTRKRDSVKWHYLCLRRYGYDSNLFSFESGRRCQTGQGIFAFKCARAEELFNMLQEIMQNNSINVVEEPVVERNNHQTELEVPRTPRTPTTPGFAAQNLPNGYPRYPSFGDASSHPSSRHPSVGSARLPSVGEESTHPLLVAEEQVHTYVNTTGVQEERKNRTSVHVPLEARVSNAESSTPKEEPSSIEDRDPQILLEPEGVKFVLGPTPVQKQLMEKEKLEQLGRDQVSGSGANNTEWDTGYDSDERRDAPSVNKLVYENINGLSIPSASGVRRGRLTSTSTSDTQNINNSAQRRTALLNYENLPSLPPVWEARKLSRDEDDNLGPKTPSLNGYHNNLDPMHNYVNTENVTVPASAHKIEYSRRRDCTPTVFNFDIRRPSLEHRQLNYIQVDLEGGSDSDNPQTPKTPTTPLPQTPTRRTELYAVIDIERTAAMSNLQKALPRDDGTSRKTRHNSTDLPM
For B1, the binding result in experiment [1] and in experiment [2] was “binds” in each case.

B2: FL Flot-1-GST (natural protein, rat, UniProt Q9Z1E1-1 1-428, looked up)
chain: MFFTCGPNEAMVVSGFCRSPPVMVAGGRVFVLPCIQQIQRISLNTLTLNVKSEKVYTRHGVPISVTGIAQVKIQGQNKEMLAAACQMFLGKTEAEIAHIALETLEGHQRAIMAHMTVEEIYKDRQKFSEQVFKVASSDLVNMGISVVSYTLKDIHDDQDYLHSLGKARTAQVQKDARIGEAEAKRDAGIREAKAKQEKVSAQCLSEIEMAKAQRDYELKKATYDIEVNTRRAQADLAYQLQVAKTKQQIEEQRVQVQVVERAQQVAVQEQEIARREKELEARVRKPAEAERYRLERLAEAEKAQLIMQAEAEAESVRMRGEAEAFAVGARARAEAEQMAKKAEAFQMYQEAAQLDMLLEKLPQVAEEISGPLTSANKITLVSSGSGTMGAAKVTGEVLDILSRLPESVERLTGVSISQVNHNKPLRTA
notes: Rat flotillin-1 in pET41a, full length; pET41a adds further N-terminal tags besides GST (surmise from the vector); also called flot-1-FL-GST
On to B2, for which the binding result in experiment [3] was “binds”.
